A short description of this data set: soluble on expression in E. coli; label from the status in PepcDB or PDB records.
Consider “MTKITVLSGKGGTGKTTVSVNMAKALSESYRVQLLDADVEEPNDHIFFNVDVSFEEPVHLMIPVVDNSVCIRCGECASTCQFGAISVFPSGTFVFESLCHGCGACSIMCPVNAISERPKEIGKIRFGTADGNISFGMGILNIGERTGVPVIRKLKKHIDEKADVVIVDAPPGTSCPVVESLRNTDFALLVTEPTAFGLHDLKLAVELTKEMGIPSGIVVNRYIPGNTIIEEFADEEGIPVLLKIPFKREIASLCAEGKLIVEAFQDMKKDFLELFEKIEVMVRLEHHHHHH”, for which the “soluble on expression in E. coli” value is “soluble”.
The value for “GMSEENKIGTYQFVAEPFHVDFNGRLTMGVLGNHLLNCAGFHASDRGFGIATLNEDNYTWVLSRLAIELDEMPYQYEKFSVQTWVENVYRLFTDRNFAVIDKDGKKIGYARSVWAMINLNTRKPADLLALHGGSIVDYICDEPCPIEKPSRIKVTSNQPVATLTAKYSDIDINGHVNSIRYIEHILDLFPIELYQTKRIRRFEMAYVAESYFGDELSFFCDEVSENEFHVEVKKNGSEVVCRSKVIFE” was “soluble”; that for “MNTFTACVERGENWWVAQLVEDPGVIVQARRLDQIQEEIRDALALFPKLTDSPETASVHLDLVGEIEQKAQATRDQLAAIRECEAHELANMSQHARRLQAAGVLRDSMQIASGSQAARS” was “not soluble”.
The value for “MGHHHHHHSHLQHETQELASKRVDIQNKRFYLDVKQNAKGRFLKIAEVGAGGNKSRLTLSMSVAVEFRDYLGDFIEHYAQLGPSQPPDLAQAQDEPRRALKSEFLVRENRKYYMDLKENQRGRFLRIRQTVNRGPGLGSTQGQTIALPAQGLIEFRDALAKLIDDYGVEEEPAELPEGTSLTVDNKRFFFDVGSNKYGVFMRVSEVKPTYRNSITVPYKVWAKFGHTFCKYSEEMKKIQEK” was “soluble”; that for “GMTGKISALDLASGELSEPTKAYFAKCEEKLGLVPNVLKAYAFDDKKLRAFTDIYNDLMLGESGLSKLDREMIAVAVSSINHCYYCLTAHGAAVRQLSGDPALGEMLVMNFRAADLSPRQTAMLEFAVKLTEEPAKIVEADRAALRKAGFSDRDIWDIASTAAFFNMSNRVAAAIDMRPNDEYHAMAR” was “soluble”.
As for “MSSLHKSRIADFQDVLKEPSIALEKLRELSFSGIPCEGGLRCLCWKILLNYLPLERASWTSILAKQRELYAQFLREMIIQPGIAKANMGVSREDVTFEDHPLNPNPDSRWNTYFKDNEVLLQIDKDVRRLCPDISFFQRATDYPCLLILDPQNEFETLRKRVEQTTLKSQTVARNRSGVTNQEQNIKPQFFAFRWLTLLLSQEFLLPDVTRIWDSLFADDNRFDFLLLVCCAMLMLIREQLLEGDFTVNMRLLQDYPITDVCQILQKAKELQDSK”, the “soluble on expression in E. coli” value was “soluble”.
The value for “MKITPLDIQQQQFKGKMLGGIDPEDVDSFLQLVAQEMEGLIRENTDLREQCRKAAADAEQTARQERELREAMLAAQKITEEMKANAQKEASLIVSEAEVKAEKILVDAERRLGQLNEQLQDLRRQKLQFESAFKALLDTHYKMISLEDA” was “not soluble”; that for “MSNSTEPALAIITVTYSPGKHLGAFLSSVKEATAQPTYVVLADNGSVDGVPEAAAQADPSVEFFPTGGNIGYGSAINAAVRKLAPLRESGKINAEFFVLSNPDVVFEPGSIDAMVQCASRHPQAADIGPYIRQSDGSAYPSARQVPTIKNGVGHALFSSVWPSNPWSRAYRDNRDMTTERTAGWLSGSCLLVRWDAFEQIGGFDERYFMYMEDVDLGDRFGRAGFDNVFCPDAVITHAVGHAAGKHPEKMLPAHHDSAYRFQADRHPGLRYLPLRVLLRVGLKLRAVVAVAAAKFKLEHHHHHH” was “soluble”.
The value for “MGSDKIHHHHHHMILAAKLFGISENGIRVAVTRLASEGVIVSAERGFYQLSEQSLEWADVMLNRRAGLKETKAWNQKYLCVLTGTLGRVDRTALKRRERALKKYGFRELEPSVYIRPDNLVISLEDMLEHMKSIGLESGAKMCHINSFDQITTGMIKDLWQTENLNKNYEKYSHIIQHWLSRVPALGLEDAARESLLLGRQTISLLMNDPLLPEPFVNVEARDQFTADVKKLDEVGQRLWKQLHELTFGTAATSLLNLELPAVADVTPKILN” was “not soluble”.
The value for “MFDFSKVVDRHGTWCTQWDYVADRFGTADLLPFTISDMDFATAPCIIEALNQRLMHGVFGYSRWKNDEFLAAIAHWFSTQHYTAIDSQTVVYGPSVIYMVSELIRQWSETGEGVVIHTPAYDAFYKAIEGNQRTVMPVALEKQADGWFCDMGKLEAVLAKPECKIMLLCSPQNPTGKVWTCDELEIMADLCERHGVRVISDEIHMDMVWGEQPHIPWSNVARGDWALLTSGSKSFNIPALTGAYGIIENSSSRDAYLSALKGRDGLSSPSVLALTAHIAAYQQGAPWLDALRIYLKDNLTYIADKMNAAFPELNWQIPQSTYLAWLDLRPLNIDDNALQKALIEQEKVAIMPGYTYGEEGRGFVRLNAGCPRSKLEKGVAGLINAIRAVR” was “soluble”.
In the case of “MGSDKIHHHHHHMNEQIIEDLSSPWSGNTVHLVTVDGSQLIKKQYRKKEGYLREVHALRTVPQAICPSLVDAYEQLTYEPLQKNIQAADLDEIIGSLLRELHQHTVQKPSVFDPGNGVTKETWLDYLESFAPNWLQTIGTEKYESMYWSAINSVRAAYDRNQRALCLIHRDARLANVGEGSDGRFLFLDFELAIIGDPLWDVARYLIQSVHSETTFLKAYEFDHTEIEVLQAYKKLYAMSFMNYLIKNKQADTLDFKKCVNVLTN”, the “soluble on expression in E. coli” value is listed as “not soluble”.
The value for “MSRTYLELSQDDGSAHKFYEVTVQGQVVTVRYGRIGAAGQTQTSTFPTAQKAEAAAAKKIGEKVRKGYEAAVQGQRAPRAVSRRQVASAPSTARAVAPVLWRFRTGSAAFGIHIDEDRCWVGNQAGDVYTLAHGGEVLARYQLPDGVKCLVADDFWIYAGCDDGRVYDLSSKLPFAAYDIAADVDIFWLDIHEGVLNVADRAGRLTVIDHEDEHQWSRGGRGEHAWMVRADDRAVYHGHTRGVTAHSPDGGVELWHTPTQGAVLFGWQEDDAVYAGTARHTVQRLSKATGGIEATYHCDSPVYSCATSPGGRFVFAGDSASSVYCFDRDGTRLWKLGTGGGSALSMQYRDERLFLVTTDGSLVCVDASEAAVTAAQQGSVPVVRDVKLAATLPTYAPATAATAVTTVTVAPAGSVVVECVQENGRTRIHVVTEGYDRSWNVQFPRAIREPGARYVVDALHAASGGFYRVRGDIRRLRLEHHHHHH” was “not soluble”; that for “MGSDKIHHHHHHMQTGKAISIPSILKVGNGTLNKIGEYLKSEELTSVVIFMGNGLIDMFGDTIMKSLTDAGITVLEYSELDTVEIDDIITLAFDIPNKVKAVVSVGGGKVIDAGKYAAFLRNMPFISVPTSSSSDGFSSASASLLVHGKRTSVPAKLAHGIIVDTQVIRTAPEKFIYSGIGDMVSKITALYDWIFEEAHGAGVVNDFAVMVAKKAVNSFVRTPYESIKDELFLKELVDSLAMSGIANEIAGSSAPTSGSEHLISHALDKILEHPQLHGIQVGIATYIMSVVQNHRYVRVCTVLKRTGFFDYAATLGMRKQDFLDAIDMAPSMKPFRHTYLHEKEYRDAAKKLVLEDDILNKILV” was “not soluble”.
The value for “DLIVTAGGKNVSPGPMEDIIRAHPLVSQAMVVGDGKPFVGLLVTLDPDMLKRWKLNHNIAESRTVSEIATDPALRAEIQDAVNNANATVSHSEAIKRFYILDRDLTEEADELTPTLKVKRNVVVRRYADAIDHIYNR” was “not soluble”; that for “MSLETVRLQRELIEAQRQTYNEMRTYFTVNGVEGVIGAVFDEGVITLRVPSEVLFAPGAVELAPGADRVLATLKDLFIRRREQNINIKGFTDDVQPSANARFKDNWEVSALRSVNVLRYFLGAGIEPARLTATGLGELDPLFPNTSDENRARNRRVEFVLERRVVREGHHHHHH” was “soluble”.
Take “MAEREFDMTIEEVTIKVAPGLDYKVFGFNGQVPGPLIHVQEGDDVIVNVTNNTSLPHTIHWHGVHQKGTWRSDGVPGVTQQPIEAGDSYTYKFKADRIGTLWYHCHVNVNEHVGVRGMWGPLIVDPKQPLPIEKRVTKDVIMMMSTWESAVADKYGEGGTPMNVADYFSVNAKSFPLTQPLRVKKGDVVKIRFFGAGGGIHAMHSHGHDMLVTHKDGLPLDSPYYADTVLVSPGERYDVIIEADNPGRFIFHDHVDTHVTAGGKHPGGPITVIEYDGVPVDDWYVWKDKDYDPNFFYSESLKQGYGMFDHDGFKGEFEQRQRRPGRKLAAALEHHHHHH”: the “soluble on expression in E. coli” value is on record as “soluble”.
The value for “MAQTVPYGIPLIKADKVQAQGFKGANVKVAVLDTGIQASHPDLNVVGGASFVAGEAYNTDGNGHGTHVAGTVAALDNTTGVLGVAPSVSLYAVKVLNSSGSGSYSGIVSGIEWATTNGMDVINMSLGGASGSTAMKQAVDNAYARGVVVVAAAGNSGNSGSTNTIGYPAKYDSVIAVGAVDSNSNRASFSSVGAELEVMAPGAGVYSTYPTNTYATLNGTSMASPHVAGAAALILSKHPNLSASQVRNRLSSTATYLGSSFYYGKGLINVEAAAQ” was “soluble”; that for “KRKDITLLNPIVRKFQYGQHTVTLETGMMARQATAAVMVSMDDTAVFVTVVGQKKAKPGQDFFPLTVNYQERTYAAGRIPGSFFRREGRPSEGETLIARLIDRPIRPLFPEGFVNEVQVIATVVSVNPQVNPDIVAMIGASAALSLSGIPFNGPIGAARVGYINDQYVLNPTQDELKESKLDLVVAGTEAAVLMVESEAQLLSEDQMLGAVVFGHEQQQVVIQNINELVKEAGKPRWDWQPEPVNEALNARVAALAEARLSDAYRITDKQERYAQVDVIKSETIATLLAEDETLDENELGEILHAIEKNVVRSRVLAGEPRIDGREKDMIRGLDVRTGVLPRTHGSALFTRGETQALVTATLGTARDAQVLDELMGERTDTFLFHYNFPPYSVGETGMVGSPKRREIGHGRLAKRGVLAVMPDMDKFPYTVRVVSEITESNGSSSMASVCGASLALMDAGVPIKAAVAGIAMGLVKEGDNYVVLSDILGDEDHLGDMDFKVAGSRDGISALQMDIKIEGITKEIMQVALNQAKGARLHILGVMEQAINAPRGDISEFAPRIHTIKINPDKIKDVIGKGGSVIRALTEETGTTIEIEDDGTVKIAATDGEKAKHAIRRIEEITAEIEVGRVYTGKVTRIVDFGAFVAIGGGKEGLVHISQIADKRVEKVTDYLQMGQEVPVKVLEVDRQGRIRLSIKEATEQSQPAAAPEAPAAEQGEHHHHHH” was “soluble”; that for “MAHHHHHHMVGIKYRKNFCDKMLRRTQQRAISQYKFGQPSLTRAFGPVPRERQVAQAGKFMSTKLPNGVRVVSHDLDGAHSVVGVYVEAGPKYDPLGCPGLSHVMRYAIQTSNMDSSLFQVDRTMRSTGNAYGHGEICKRYIHWKTEGRRDMWEKPFAMIATGVVAPRFHESDLERFRDTMDNQREELRWQNPREYCVDALETVAFFKEPLASPRMVPPESNDRCNQKVLLDHWAAYFQPGNITVAAVNIPHDALLAAYTSLPYPHSAEAPHHARSRPPTLSHASESAQFYPGRQYIVYEDRAKNMGTVPDMKEEVIAALGAPTFGRDEDVKKYATALVAREVYQASIESVMPAALTTSHGVQSFYRPYSSAGLIGITIRGAPKEIAGFLDAARGCFPIKVKDDEVAAGRARAAMAFTRNHLDMVRDYCDFIATLSVTPQQLMEAIGAVSAGEVDAALRTLSAVPPAVFVTGSTFTFPKVPSLKK” was “not soluble”.
Take “MKVVAFNGSPRRDGNTSILIDKVLNELKKEGITTEHIHIAGGKLRGCTACYKCFETLNNKCIIECDIINNCIEKMIEADGIILGSPTYFTDVTAEMKALIDRAGFVAKANDDILKRKVGAAVVSVRRAGGVHVFDTLNHFFSINQMISVGSDYWNLGMGLDIGDVQKDAEGLHTMELLGQNMAWILKKINELEHHHHHH”: the “soluble on expression in E. coli” value is “not soluble”.

Values taken from the DeepSol protein solubility set.
